In US20080286310A1:

Target: Translocated intimin receptor Tir of EHEC O157:H7 (enterohemorrhagic Escherichia coli O157:H7) (UniProt Q7DB77)
Experiment: cell-based or functional assay

Sequence of UniProt Q7DB77 (Q7DB77 whole entry): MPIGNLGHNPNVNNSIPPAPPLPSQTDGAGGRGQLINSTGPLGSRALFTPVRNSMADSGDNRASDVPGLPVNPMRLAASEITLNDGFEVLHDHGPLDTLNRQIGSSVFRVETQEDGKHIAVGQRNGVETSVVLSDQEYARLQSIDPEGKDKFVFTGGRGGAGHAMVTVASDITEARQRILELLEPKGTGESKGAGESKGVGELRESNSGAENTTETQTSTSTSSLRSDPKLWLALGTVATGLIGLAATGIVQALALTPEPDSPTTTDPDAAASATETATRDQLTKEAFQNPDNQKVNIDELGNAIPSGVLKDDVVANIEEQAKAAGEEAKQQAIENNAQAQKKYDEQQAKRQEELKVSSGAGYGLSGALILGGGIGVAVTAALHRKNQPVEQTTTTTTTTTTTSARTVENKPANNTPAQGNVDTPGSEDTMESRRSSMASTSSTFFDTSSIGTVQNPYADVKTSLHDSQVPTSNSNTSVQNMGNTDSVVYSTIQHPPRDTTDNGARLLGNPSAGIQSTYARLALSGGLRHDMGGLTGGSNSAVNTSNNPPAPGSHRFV

Q: For “Native intimin of EHEC O157:H7 strain 86-24 (from UniProt P43261 40-934)”, which microcolonies on HeLa cells (percent of cells) is on record?
A: The microcolonies on HeLa cells (percent of cells) was 47%.
